Assays:
[1] = target: T1, human ROR1-ECD (ROR1-derived extracellular domain fragment without Fc) (human, UniProt Q01973 30-406); experiment: SPR (BIACORE X100), ROR1-ECD coupled to CM5 chip, bivalent IgG injected, 1:1 Langmuir model
T1 construct: extracellular domain; also called hROR1ECD; ROR-ECD

Fc-hROR1(d2d3) = target: T2, Fc-hROR1(d2d3) (human, UniProt Q01973 161-406, limits assumed); experiment: ELISA, coated domain construct
T2 construct: domain: d2-Frizzled and d3-Kringle; Order from the name; not shown: human Fc region
T2 sequence (Q01973 161-406 limits assumed): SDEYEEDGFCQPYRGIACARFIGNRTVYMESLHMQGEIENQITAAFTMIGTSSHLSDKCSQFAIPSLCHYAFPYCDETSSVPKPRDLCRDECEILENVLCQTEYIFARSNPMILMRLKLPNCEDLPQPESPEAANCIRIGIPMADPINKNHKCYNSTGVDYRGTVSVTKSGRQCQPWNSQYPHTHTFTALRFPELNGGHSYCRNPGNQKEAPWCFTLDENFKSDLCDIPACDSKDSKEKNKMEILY

Fc-hROR(d3) = target: T3, Fc-hROR(d3) (human, UniProt Q01973 308-406, limits assumed); experiment: ELISA, coated domain construct
T3 construct: domain: d3-Kringle; Order from the name; not shown: human Fc region
T3 sequence (Q01973 308-406 limits assumed): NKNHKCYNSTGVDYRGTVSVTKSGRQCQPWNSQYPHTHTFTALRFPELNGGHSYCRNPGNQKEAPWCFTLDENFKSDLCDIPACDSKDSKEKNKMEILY

Fc-hROR1(d2) = target: T4, Fc-hROR1(d2) (human, UniProt Q01973 161-307, limits assumed); experiment: ELISA, coated domain construct
T4 construct: domain: d2-Frizzled; Order from the name; not shown: human Fc region
T4 sequence (Q01973 161-307 limits assumed): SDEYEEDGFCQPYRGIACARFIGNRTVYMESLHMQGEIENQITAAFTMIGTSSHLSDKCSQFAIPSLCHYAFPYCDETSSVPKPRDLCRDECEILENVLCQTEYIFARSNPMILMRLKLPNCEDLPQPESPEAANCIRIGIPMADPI

T1 sequence (Q01973 30-406): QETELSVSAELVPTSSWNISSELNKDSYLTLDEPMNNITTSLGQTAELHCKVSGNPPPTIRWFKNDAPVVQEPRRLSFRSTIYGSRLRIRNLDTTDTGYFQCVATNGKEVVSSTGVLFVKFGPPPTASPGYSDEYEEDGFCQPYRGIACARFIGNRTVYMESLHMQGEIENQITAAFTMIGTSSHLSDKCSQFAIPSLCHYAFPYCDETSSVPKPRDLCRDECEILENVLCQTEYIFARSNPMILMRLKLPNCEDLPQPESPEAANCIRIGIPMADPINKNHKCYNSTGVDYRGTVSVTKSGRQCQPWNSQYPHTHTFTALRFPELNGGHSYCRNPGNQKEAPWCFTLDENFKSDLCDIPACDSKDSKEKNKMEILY

B1: mouse monoclonal antibody (mAb) 2A2 (antibody, mouse IgG1, V domains shown)
VH: QVQLQQSGAELVRPGASVTLSCKASGYTFSDYEMHWVIQTPVHGLEWIGAIDPETGGTAYNQKFKGKAILTADKSSSTAYMELRSLTSEDSAVYYCTGYYDYDSFTYWGQGTLVTVSA
VL: DIVMTQSQKIMSTTVGDRVSITCKASQNVDAAVAWYQQKPGQSPKLLIYSASNRYTGVPDRFTGSGSGTDFTLTISNMQSEDLADYFCQQYDIYPYTFGGGTKLEIK
notes: also called mouse mAb 2A2
Kd [1]: 0.1 nM
binding result (Fc-hROR1(d2d3)): no binding
binding result (Fc-hROR(d3)): no binding
binding result (Fc-hROR1(d2)): no binding

From patent publication US20120058051A1 (US Dept. of Health and Human Services, published 2012)
